Test results: patent publication US20230310650A1

Target: human extracellular signal-regulated kinase 1/2 (Erk) (human) (UniProt P27361)
Test: cell-based or functional assay

UniProt P27361, sequence (P27361 2-379 limits assumed, chain 1 of 2): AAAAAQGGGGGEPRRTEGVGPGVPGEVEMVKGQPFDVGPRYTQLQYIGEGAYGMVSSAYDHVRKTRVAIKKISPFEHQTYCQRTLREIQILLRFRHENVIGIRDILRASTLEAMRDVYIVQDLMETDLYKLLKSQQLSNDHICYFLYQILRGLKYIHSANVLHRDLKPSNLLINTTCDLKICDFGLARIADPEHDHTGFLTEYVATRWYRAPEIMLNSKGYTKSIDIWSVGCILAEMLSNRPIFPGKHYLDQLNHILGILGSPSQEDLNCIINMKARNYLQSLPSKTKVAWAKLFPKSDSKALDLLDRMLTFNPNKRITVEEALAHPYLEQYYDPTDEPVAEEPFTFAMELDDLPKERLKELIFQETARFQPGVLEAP
UniProt P27361, sequence (P28482 2-360 limits assumed, chain 2 of 2, further chain): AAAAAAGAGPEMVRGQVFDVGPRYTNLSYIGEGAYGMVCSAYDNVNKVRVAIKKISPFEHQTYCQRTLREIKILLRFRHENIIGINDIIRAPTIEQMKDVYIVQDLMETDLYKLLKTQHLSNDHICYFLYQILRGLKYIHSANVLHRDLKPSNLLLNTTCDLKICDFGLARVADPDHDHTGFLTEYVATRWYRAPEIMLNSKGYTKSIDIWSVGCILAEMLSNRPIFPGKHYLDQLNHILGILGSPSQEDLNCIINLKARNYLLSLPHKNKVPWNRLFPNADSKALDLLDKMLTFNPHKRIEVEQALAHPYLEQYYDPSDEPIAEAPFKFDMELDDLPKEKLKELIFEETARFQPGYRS

“MAPK phosphothreonine lyase OspF of Shigella flexneri, expressed from pGB4 as a fusion to TEM-1 (from UniProt Q8VSP9 1-239)” gave a decrease in p-Erk percentages of live t-Erk positive T cells (flow cytometry) after infection with E. coli TOP10 pGB4 greater than 60%.
